Holding throughout (conditions): tags: American Diagnostica 4500PC/4900PC, E. coli expressed
Data set [1] concerns the target T1, TFPI (tissue factor pathway inhibitor, full-length) (Homo sapiens, UniProt P10646 SEQ:1-276). The data set can be described thus: competition; fails binding-competition criterion; FXa yes. Here is the method: (§1) Each molecule was evaluated for binding to tissue factor pathway inhibitor (TFPI) in a binding-competition assay. For these experiments, 10 nM human TFPI (American Diagnostica, Stamford, Conn., catalog #4500PC) was incubated with trace amounts of radiolabeled ARC17480 and 5000 nM, 1666.67 nM, 555.56 nM, 185.19 nM, 61.73 nM, 20.58 nM, 6.86 nM, 2.29 nM, 0.76 nM or 0.25 nM of unlabeled competitor aptamer. ARC17480 was included as a competitor in every experiment as a control. For each molecule, the percentage of radiolabeled ARC17480 bound at each competitor aptamer concentration was used for analysis. The percentage of radiolabeled ARC17480 bound was plotted as a function of aptamer concentration and fit to the equation y=(max/(1+x/IC₅₀))+int, where y=the percentage of radiolabeled ARC17480 bound, x=the concentration of aptamer, max=the maximum radiolabeled ARC17480 bound, and int=the y-intercept, to generate an IC₅₀ value for binding-competition. The IC₅₀ of each aptamer was compared to the IC₅₀ of ARC17480 that was evaluated in the same experiment. A substitution was considered tolerated in the binding-competition assay if the IC₅₀ of that molecule was not more than 5-fold greater than that of ARC17480 evaluated in the same experiment. Tolerated substitutions are indicated in Table 38 as meeting the assay criteria (“yes”) or not meeting the assay criteria (“no”).

Data set [2] has as its target T1, TFPI (tissue factor pathway inhibitor, …). The data set can be described thus: competition; fails binding-competition criterion; CAT yes. The protocol: (§2) The substituted ARC17480 molecules were assayed for binding and function. The assays used for this evaluation were the calibrated automated thrombogram (CAT) assay, a dot-blot binding-competition assay and a FXa activity assay. The results of these assays are summarized in Table 40 and depicted in FIG. 147. A mutation was considered tolerated for activity if it met the criteria of at least two of the three assays that were carried out. Mutations that are tolerated (“yes”) and not tolerated (“no”) are identified in Table 40. The experimental details and the criteria used for each assay are described in the following paragraphs. The molecules described in this example were first tested in the CAT assay and the dot-blot binding-competition assay. In most cases, molecules were only tested in the FXa assay if there was a discrepancy between the results in the CAT assay and the dot-blot binding-competition assay.
(§3) Each molecule was evaluated for binding to tissue factor pathway inhibitor (TFPI) in a binding-competition assay. […] The IC₅₀ of each aptamer was compared to the IC₅₀ of ARC17480 that was evaluated in the same experiment. A mutation was considered tolerated in the binding-competition assay if the IC₅₀ of that molecule was not more than 5-fold greater than that of ARC17480 evaluated in the same experiment. […]

Data set [3] shares this target. The data set can be described thus: competition; competition with 20 nM ARC19499, plate assay. Here is the method: In order to assess the affinity of ARC19498 towards TFPI protein, an ARC19499:TFPI binding competition assay was set up. Recombinant human TFPI protein (0.5 mg/mL) was diluted in DPBS to a final concentration of 15 μg/mL, and 100 μL was added to a 96-well Maxisorb plate and incubated overnight at 4° C. The TFPI solution was then removed and the plate was subsequently washed 3 times with 200 μL wash buffer (DPBS+0.05% Tween 20) at room temperature. The plate was then blocked with 200 μL of 10 mg/mL BSA in DPBS for 30 minutes at room temperature. The BSA blocking solution was then removed and the plate was washed again 3 times with 200 μL wash buffer. ARC19498 was serially diluted and mixed at different concentrations with 20 nM ARC19499 in DPBS in 0.1% BSA. The ARC19498:ARC19499 mixtures were added to the plate and incubated for 3 hours at room temperature. After washing 3 times with 200 μL wash buffer, 100 μL of 0.5 μg/mL rabbit monoclonal anti-PEG antibody (Epitomics) was added to the plate and incubated for 60 minutes at room temperature. The anti-PEG antibody solution was then removed and the plate was washed as described above. […] The assay plate was then read at 450 nm using a Victor³V 1420 multilabel counter (Perkin Elmer). […] The IC₅₀ was calculated based on 4-parameter logistics using Graphpad Prism 4 software.

For data set [4] the target is unchanged. The data set can be described thus: competition; dot-blot; FXa assay criterion not met. The protocol: (§4) Each molecule was evaluated for binding to tissue factor pathway inhibitor (TFPI) in a binding-competition assay. For these experiments, 10 nM human TFPI (American Diagnostica, Stamford, Conn., catalog #4500PC) was incubated with trace amounts of radiolabeled ARC17480 and 5000 nM, 1666.67 nM, 555.56 nM, 185.19 nM, 61.73 nM, 20.58 nM, 6.86 nM, 2.29 nM, 0.76 nM or 0.25 nM of unlabeled competitor aptamer. ARC17480 was included as a competitor in every experiment as a control. For each molecule, the percentage of radiolabeled ARC17480 bound at each competitor aptamer concentration was used for analysis. The percentage of radiolabeled ARC17480 bound was plotted as a function of aptamer concentration and fit to the equation y=(max/(1+x/IC₅₀))+int, where y=the percentage of radiolabeled ARC17480 bound, x=the concentration of aptamer, max=the maximum radiolabeled ARC17480 bound, and int=the y-intercept, to generate an IC₅₀ value for binding-competition. The IC₅₀ of each aptamer was compared to the IC₅₀ of ARC17480 that was evaluated in the same experiment. A substitution was considered tolerated in the binding-competition assay if the IC₅₀ of that molecule was not more than 5-fold greater than that of ARC17480 evaluated in the same experiment. Tolerated substitutions are indicated in Table 37 as meeting the assay criteria (“yes”) or not meeting the assay criteria (“no”).

Data set [5] shares this target. The experiment in a line: competition; dot-blot; CAT and FXa criteria not met. Here is the method: as §4
Data set [6] shares this target. The data set can be described thus: competition; meets binding-competition criterion; CAT no. The protocol: as §2, §3
The target is the same in data set [7]. The data set can be described thus: competition; negative control, no competition with ARC17480 in dot blot.
For data set [8] the target is unchanged. The experiment in a line: competition; meets binding-competition criterion; CAT no. The protocol:
as §1
The source holds these as a separate data set.

The target is the same in data set [9]. The experiment in a line: competition; fails binding-competition criterion; CAT and FXa yes. The protocol:
as §1

T1 sequence (P10646 29-304): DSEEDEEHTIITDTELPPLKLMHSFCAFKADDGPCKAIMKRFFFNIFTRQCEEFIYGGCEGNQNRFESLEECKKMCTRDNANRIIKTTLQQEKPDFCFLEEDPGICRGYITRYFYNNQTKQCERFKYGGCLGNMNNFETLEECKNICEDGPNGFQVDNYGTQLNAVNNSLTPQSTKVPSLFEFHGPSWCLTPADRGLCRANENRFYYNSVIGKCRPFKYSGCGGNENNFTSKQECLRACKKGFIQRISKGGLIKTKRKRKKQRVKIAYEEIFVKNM

In the case of GGAAUAUACUUGGCUCGUAGGUGCGUAUAUA (mixed, 2'-OMe A/G/U, 2'-deoxy C, 3' idT) [ARC33132], in [1], the binding signal was > 5 fold IC50 of ARC17480.

For the molecule GGAAUAUACUUGGCUCGUUAUGUGCGUAUAUA (mixed, 2'-OMe A/G/U, 2'-deoxy C, 3' idT) [ARC33169], in [2], the binding signal is > 5 fold IC50 of ARC17480.

The molecule GGAAUAUACUUGGCUCGUUAGGUGCGUAUAUA (mixed, 5'-hexylamine, 2'-OMe A/G/U, 2'-deoxy C, 3' idT) [ARC19498] had an IC50 in data set [3] of 20 nM.

For GGAAUAUACUUGGCUCGUUAGGUGCGUAUAUA (XNA, 2'-OMe except dC9, dC14, dC16; 2'-OMe C25; 3' idT) [ARC18541], in data set [4], the binding signal is at most 5 fold IC50 vs ARC17480.

Molecule GGAAUAUACUUGGCUCGTUAGGUGCGUAUAUA (XNA, 2'-OMe except dC9, dC14, dC16, dC25 and dT18; 3' idT) [ARC19462] showed a binding signal in data set [5] of at most 5 fold IC50 vs ARC17480.

On to GGAAUAUACTUGGCUCGUUAGGUGCGUAUAUA (XNA, 2'-OMe except dC9, dC14, dC16, dC25 and dT10; 3' idT) [ARC19456], for which the binding signal in data set [5] is at most 5 fold IC50 vs ARC17480.

GGAAUAUACUUGGCUCGUUAGGUGCGUACAUA (mixed, 2'-OMe A/G/U and mC29, other C 2'-deoxy, 3' idT) [ARC33177]: the binding signal in [6] is ≤ 5 fold IC50 of ARC17480.

With GGAAUAUACUUGGCUCGUUAGGUGCGUAUAUA (XNA, 2'-OMe except dC9, dC25; 2'-OMe C14 and C16; 3' idT) [ARC18545], the binding signal in data set [4] is at most 5 fold IC50 vs ARC17480.

Take GGAAUAUACUUGGCUGCUUAGGUGCGUAUAUA (mixed, 2'-OMe A/G/U, 2'-deoxy C, 3' idT) [ARC32603]: the binding result in [7] is listed as “no binding”.

As to GGAAUUUACUUGGCUCGUUAGGUGCGUAUAUA (mixed, 2'-OMe A/G/U, 2'-deoxy C, 3' idT) [ARC33154], in data set [6], the binding signal was ≤ 5 fold IC50 of ARC17480.

Consider GGAAUUACUUGGCUCGUUAGGUGCGUAUAUA (mixed, 2'-OMe A/G/U, 2'-deoxy C, 3' idT) [ARC33122], for which, in data set [8], the binding signal is ≤ 5 fold IC50 of ARC17480.

With GGAAUAUACUUGGCUCGUUAGGUGCGUAAUA (mixed, 2'-OMe A/G/U, 2'-deoxy C, 3' idT) [ARC33141], the binding signal in data set [8] is ≤ 5 fold IC50 of ARC17480.

Take UAUACUUGGCUCGUUAGGUGCGUAU (mixed, 2'-OMe A/G/U, 2'-deoxy C, 3' idT) [ARC33889]: the binding signal in data set [9] is > 5 fold IC50 of ARC17480.

One may read the IC50 as the point on the concentration scale where inhibition reaches its midpoint. Lower therefore signals inhibition by little substance.

(Values after patent publication US20110281938, “APTAMERS TO TISSUE FACTOR PATHWAY INHIBITOR AND THEIR USE AS BLEEDING DISORDER THERAPEUTICS” (Baxter Healthcare S.A., published 2011).)
